Among the data in PMC10619557, “Crystal Structures of 6-Phosphogluconate Dehydrogenase from Corynebacterium glutamicum” (Journal of Microbiology and Biotechnology, 2023) are Km, kcat and kcat/Km values, retold here.

Substrate in series [1]: NC(=O)c1ccc[n+]([C@@H]2O[C@H](COP(=O)(O)OP(=O)(O)OC[C@H]3O[C@@H](n4cnc5c(N)ncnc54)[C@H](OP(=O)(O)O)[C@@H]3O)[C@@H](O)[C@H]2O)c1
As to the kind of experiment: purified protein. Format: biochemical, Corynebacterium glutamicum. The following applies: NADP 0.01-2 mM, 5 mM 6PG, 40 mM Tris-HCl pH 8.0, 20 °C, varied: cofactor.

Substrate in series [2]: O=C(O)[C@H](O)[C@@H](O)[C@H](O)[C@H](O)COP(=O)(O)O
As to the kind of experiment: purified protein. The following applies: 6PG 0.1-5 mM, 2 mM NADP, 40 mM Tris-HCl pH 8.0, 20 °C. In kind it is biochemical, Corynebacterium glutamicum.

B1: Cg6PGD (Corynebacterium glutamicum ATCC 13032) (protein)
chain: MTNGDNLAQIGVVGLAVMGSNLARNFARNGNTVAVYNRSTDKTDKLIADHGSEGNFIPSATVEEFVASLEKPRRAIIMVQAGNATDAVINQLADAMDEGDIIIDGGNALYTDTIRREKEISARGLHFVGAGISGGEEGALNGPSIMPGGPAKSYESLGPLLESIAANVDGTPCVTHIGPDGAGHFVKMVHNGIEYADMQVIGEAYHLLRYAAGMQPAEIAEVFKEWNAGDLDSYLIEITAEVLSQVDAETGKPLIDVIVDAAGQKGTGRWTVKAALDLGIATTGIGEAVFARALSGATSQRAAAQGNLPAGVLTDLEALGVDKAQFVEDVRRALYASKLVAYAQGFDEIKAGSDENNWDVDPRDLATIWRGGCIIRAKFLNRIVEAYDANAELESLLLDPYFKSELGDLIDSWRRVIVTATQLGLPIPVFASSLSYYDSLRAERLPAALIQGQRDFFGAHTYKRIDKDGSFHTEWSGDRSEVEA
notes: full length, 484 residues (Met1-Ala484), C-terminal His6 (pET-30a), E. coli BL21(DE3)-T1R
For B1, in “purified protein [1]”, the Km came out at 162.8 ± 9.5 µM, the kcat was 17.1 ± 0.282 s⁻¹ and the kcat/Km was found to be 105000 M⁻¹ s⁻¹. Also, in “purified protein [2]”, the Km is 340.8 ± 30 µM, the kcat stood at 19 ± 0.452 s⁻¹ and the kcat/Km was determined as 55700 M⁻¹ s⁻¹.
